Laboratory results from patent US20050069887A1, “Dna synthesis promoters dna polymerase-associated factors and utilization thereof” (priority 2001, published 2005).

T1: KOD DNA polymerase (DNA polymerase derived from Thermococcus kodakaraensis KOD1) (Thermococcus kodakaraensis KOD1, UniProt P77933 1-1671)
T1 sequence: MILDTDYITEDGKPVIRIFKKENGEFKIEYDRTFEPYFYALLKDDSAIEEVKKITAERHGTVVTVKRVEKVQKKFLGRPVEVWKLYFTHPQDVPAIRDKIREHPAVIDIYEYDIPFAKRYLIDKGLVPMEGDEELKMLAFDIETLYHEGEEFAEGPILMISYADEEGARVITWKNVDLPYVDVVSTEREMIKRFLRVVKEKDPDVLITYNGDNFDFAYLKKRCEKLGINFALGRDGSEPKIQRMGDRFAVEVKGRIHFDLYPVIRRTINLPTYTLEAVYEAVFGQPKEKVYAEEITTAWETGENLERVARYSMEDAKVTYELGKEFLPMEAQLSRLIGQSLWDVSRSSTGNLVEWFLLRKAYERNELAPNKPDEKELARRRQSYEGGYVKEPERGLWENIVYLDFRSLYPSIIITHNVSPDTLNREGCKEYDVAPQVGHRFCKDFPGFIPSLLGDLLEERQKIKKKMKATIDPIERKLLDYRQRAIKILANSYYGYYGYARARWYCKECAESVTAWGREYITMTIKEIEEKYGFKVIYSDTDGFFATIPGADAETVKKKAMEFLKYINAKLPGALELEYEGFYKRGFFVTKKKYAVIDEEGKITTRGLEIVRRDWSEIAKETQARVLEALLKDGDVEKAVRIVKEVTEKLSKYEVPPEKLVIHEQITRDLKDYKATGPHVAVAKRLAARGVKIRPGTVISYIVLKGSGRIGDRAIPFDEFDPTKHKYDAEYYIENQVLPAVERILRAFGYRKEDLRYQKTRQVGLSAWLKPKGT


Tests used:
pMol 21 = details: PCR product fidelity, rpsL / pMol 21 method; cited from earlier work
M13 single-stranded DNA = details: Takagi et al. 1997; cited from earlier work
[1] = target: T1, KOD DNA polymerase (DNA polymerase …); assay: cell-based or functional assay
[2] = target: the molecule itself; assay: gel filtration HPLC (TSKgel G3000SW), molecular weight against standard samples

DNA elongation rate relative to the sample with no PCNA added [1] [times]	Molecule	mutation rate (pMol 21) [%]	DNA elongation rate (M13 single-stranded DNA) [bases/second]	binding result [2]
	Taq polymerase: DNA polymerase derived from Thermus aquaticus	≥ 4	61.0	
~3	KOD-PCNA (proliferating cell nuclear antigen) derived from Thermococcus kodakaraensis KOD1 (other, also called KOD-PCNA protein; KOD-PCNA complex) PFEVVFDGAKEFADLIATASNLIDEAAFKFTEEGISMRAMDPSRVVLIDLNLPESIFSKYEVEEPETIGINMDQFKKILKRGKAKDTLILRKGDENFLEITFEGTAKRTFRLPLIDVEELELELPELPFTAKVVLLGEVLKEGIKDASLVSDAIKFIAKENEFTMKAEGETNEVEIRLTLEDEGLLDLEVEEETKSAYGISYLSDMVKGIGKADEVILRFGNEMPLQMEYMIRDEGRLTFLLAPRVEE			binds
	Pfu polymerase: DNA polymerase derived from Pyrococcus furiosus (protein, UniProt P61875 1-775, looked up) DNA polymerase: MILDVDYITEEGKPVIRLFKKENGKFKIEHDRTFRPYIYALLRDDSKIEEVKKITGERHGKIVRIVDVEKVEKKFLGKPITVWKLYLEHPQDVPTIREKVREHPAVVDIFEYDIPFAKRYLIDKGLIPMEGEEELKILAFDIETLYHEGEEFGKGPIIMISYADENEAKVITWKNIDLPYVEVVSSEREMIKRFLRIIREKDPDIIVTYNGDSFDFPYLAKRAEKLGIKLTIGRDGSEPKMQRIGDMTAVEVKGRIHFDLYHVITRTINLPTYTLEAVYEAIFGKPKEKVYADEIAKAWESGENLERVAKYSMEDAKATYELGKEFLPMEIQLSRLVGQPLWDVSRSSTGNLVEWFLLRKAYERNEVAPNKPSEEEYQRRLRESYTGGFVKEPEKGLWENIVYLDFRALYPSIIITHNVSPDTLNLEGCKNYDIAPQVGHKFCKDIPGFIPSLLGHLLEERQKIKTKMKETQDPIEKILLDYRQKAIKLLANSFYGYYGYAKARWYCKECAESVTAWGRKYIELVWKELEEKFGFKVLYIDTDGLYATIPGGESEEIKKKALEFVKYINSKLPGLLELEYEGFYKRGFFVTKKRYAVIDEEGKVITRGLEIVRRDWSEIAKETQARVLETILKHGDVEEAVRIVKEVIQKLANYEIPPEKLAIYEQITRPLHEYKAIGPHVAVAKKLAAKGVKIKPGMVIGYIVLRGDGPISNRAILAEEYDPKKHKYDAEYYIENQVLPAVLRILEGFGYRKEDLRYQKTRQVGLTSWLNIKKS		24.8	
